The values that follow come from the DeepSol protein solubility set.

This data set in a line: soluble on expression in E. coli; label from the status in PepcDB or PDB records.
In the case of “MQHECNTDYTIAKYIPYIKPKYVTQEGTTVLYVRYNYNRNKRTLISTGYNIKPEHWDAKRKWIKRACPHYEEIDACLIKITSKLGDILTYAKVNGIDPTVDFVLLELEKNREYDLRPNRVDMFDALERYIVEKAPSVSADQIKDYRTLRKHLTAFKEYSSQPVTFRNLNLTFYNEFMDYLFHKVVKPNGTVGLLTNSAGKIIRLLKGFVNYQIVKGIIPPIDLKNFKVVEEETDAIYLNEKELAAIYELDLSDDKQLEEIRDVFITGCFTGLRYSDLSTLSPEHIDLDNENINLKQRKVHKAVVIPMIDYVPEILKKYNYDLPKIPRYMFNERVKELGRKIKLSQKIEVVRRKGKEREKRVYEKWEMISSHTCRRSFCTNMYLSGFPAAELMRISGHKSPSAFMRYIKVDNQQAAKRLKELRAKLAR”, the “soluble on expression in E. coli” value is listed as “not soluble”.

On to “ILQTTVDGNSTAISNLKSDISSNGLAITDLQDRVKSLESTASHGLSFSPPLSVADGVVSLDMDPYFCSQRVSLTSYSAEAQLMQFRWMARGTNGSSDTIDMTVNAHCHGRRTDYMMSSTGNLTVTSNVVLLTFDLSDITHIPSDLARLVPSAGFQAASFPVDVSFTRDSATHAYQAYGVYSSSRVFTITFPTGGDGTANIRSLTVRTGIDT”, for which the “soluble on expression in E. coli” value was “soluble”.

For the sequence “MALLEICCYSMECALTAQRNGADRIELCAAPKEGGLTPSFGVLRSVREHITIPVHPIIRPRGGDFYYTDGEFAAMLEDIRLVRELGFPGLVTGVLTVDGDVDMSRMEKIMAAAGPLAVTFHRAFDMCANPFNALKNLADAGVARVLTSGQKADAAQGLSIIMELIAQGDAPTIMAGAGVRANNLQNFLDAGVREVHSSAGVLLPSPMRYRNQGLSMSADIQADEYSRYRVEGAAVAEMKGIIVRHQAK”, the “soluble on expression in E. coli” value is “not soluble”.

Consider “MGSDKIHHHHHHMALVKCQSLNEIPMTATNHMDTSVQHVDIAIVGGAMAGATLALALARLSLSAARPLSIALIEAHLPDKQHPGFDARSIAIAHGSIFELSRLGLWPKLAHLGTAIENIHVSDRGHFGMTELNAAQFHLDALGQVVELERVGQVLFNELNKSEVKLYCPAKLAQVEPAVEGHTLVLDTGKRLKAKLVVAADGLQSKVRSSFDLPVTQVAFEQTAIIANIQTDKPHQHLAYERFTQTGPLALLPMADSQGKPRLSLVWALDDARAKQMQTAPKAEFLAALQQAFGYRAGTFIDVSARHAYPLNLSYMPRPIHHRCVFIGNAAQTLHPIAGQGFNLGLRDVVSLLEVLKTALDQGDDIGSAAVTHAYLNAREHDRNSTIRNIEFLVRGFSNQYWPMALGRNLGLRLLSWFPPLKTPVAQKAMGWK”, for which the “soluble on expression in E. coli” value was “not soluble”.

In the case of “MGSDKIHHHHHHMGNAAASTRAICHRRCSTYPRMNDFQSLSTEESPAPAGTNPAVNPIARIHGEPVTEIPSDLYIPPDALEVFLDTFQGPLDLLLYLIRKHNLDVLDIAMAELTRQYLAYIEMMRANKLELAAEYLLMAAVLIEIKSRMLLPKPVAKGNEDEVDPRAELVRRLLEYEQMKVAGQKLNKLPQAERDFALTNVWIEQKVIERLPEVNADDLRNAWLILMARLNVNRRHNITREELSVREHMTRILRHVQGHHFVEFSDLFNAAAGAAELVVTFLALLELVKERQVEVSQPSAFGMIYVRPISVLTTV”, the “soluble on expression in E. coli” value is reported as “not soluble”.

With “SNAMATKLVIAIVQDKDANYLSDQFIDQNVRATKLSTTGGFLQSGNTTFMIGIEEERVPEVLEIIKKASHTREEFMTPSVNMDVNMEGTTAYPIKVQVGGATVLVLPVDQFERF”, the “soluble on expression in E. coli” value was “soluble”.

On to “SLLLKQAIVYPITSQKFQGDVLVIGEKIAEVKPSIQPTQDMTVIDARALHLLPGFIDVHTHLGLYDEGTGWAGNDANETSEVSTPHIRSLDGIHPFDIAFQDAVQNGITTVHVMPGSQNIIGGTTCVIKTAGTCIDHMIIQEPAGLKIAFGENPKKVHSNGTKESITRMGIMGLLRESFYEAQHYGHEADFRMLPILKALRREIPVRIHAHRADDISSALRFATEFNLDLRIEHCTEGHFIVEELSKHNLKVSVGPTLTRRSKIELKNKTWDTYHILSKNGVEVSITTDHPYTPIQYLNVCAAVAVREGLDEKTALEGITIFPARNLRLEDRIGSIETGKDADLVLWTHHPFHYLAKPVLTMIDGKIIYKKNKKN”, for which the “soluble on expression in E. coli” value is on record as “soluble”.

Turning to “MAAIIRTLFKSKKSKKGDEENNEDLAREVSNRRSFRAPSTSSSKSQRRAVARFADDGALPATAAYHTTSAPKLRKGPQSCPGGYRDESDVSYESDKYSQKSNSHRRRDVLHQSMRQNYTIDEGRKPSSRRHHSSKSDFRRRGESSEYGSGDPSPVGQYSSRHSHYEDRIEESENDDFSEKAQFAVIERAQQHYMQKYKESEQKRREEKRKLKDMEKECNDAKNAMFHYMNQLDKVKKERDCYRKELSRCKKQLEAFQNSGYDAFHHLRQPQISNPQQYPPPLSMGSYPYMSQSMNASHHMSSNFMNSAPPSSNTPMTMTSGAGESLINPSDVSFLQNSFLQPTSQGLTGMTPPPGGFKVPTNYGDDDRDEVKDYRSELLIETSRSTKEVDSISPSSSADSQVTLLDHSTIDKENRKPPSRPFSMMSI”, the “soluble on expression in E. coli” value was “not soluble”.

As for “MGSDKIHHHHHHAAVTKTTWSDAPAREFVFVENNSDDNFFVTPGGALDPRMTGANRWTGLKYTGSGTIYQQSLGYIDNGYNTGLNANWKFDMWLENSPVSHPLTGLRCINWYAGCDMATSLILPQTTDASGFYGATVTSGGAKWMHGMMSDAFYQYLQQMPVGGSFTMTINACQTSVNYDASSGARCKDQASGNWYVRNVTHTKAANLRLINTHSLAEVFINSDGVPTLGEGNADCRTQTIGSRSGLSCKMVNYTLQTNGLSNTSIHIFPAIANSSLASAVGAYDMQFSLNGSSWKPVSNTAYYYTFNEMKSSDSIYVFFSSNFFKQMVNLGISDINTKDLFNFRFQNTTSPESGWYEFSTSNTLIIKPRDFSISIISDEYTSAPSREGYVGSGEPALDFGYIVTTSGKTAADEVLIKVTGPAQVIGGRSYCLFSSDDGTAKVPFPATLSFITRSGTTQTYDAGCDDSWRDMTDALWLTTPWTDISGEVGQMDKTTVKFSIPMDNAISLRTVDDNGWFGEVSASGEIHVQATWRNIN”, the “soluble on expression in E. coli” value was “not soluble”.

As for “MGSDKIHHHHHHMKVIIEADGGSRGNPGIAGSGTLIYNADRSQVLKEYSYVVGKATNNVAEYHGLLNGLRGAAELGATEVSVRMDSKLVVEQMSGRWKIKHPDMKELALECKKVASSIGSVSYEWIPRSENSHADALANKAMDALAEGAAVGFLELEEPAAKTDSEEKVVETATSPAVWNGATTQATRFVLLRHGQTAMSAARQYSGRSNPELTSVGLEQARRAAAFIGRRGGIDAIVASPLQRCQQTAHEVSEQLGGMPVRTIDGLIEMDFGQWDGLSFSQAHEADPELHSAWLDDSRTAPPGGESLQQVHRRVKKVREELERKYAGKTIVVVSHVTPIKSILRQALDASASMFHRMHLDLASISVAEFYSDGPTCVRSVNDTHYLYG”, the “soluble on expression in E. coli” value is on record as “not soluble”.

“MTSDNKQEYTIHIFGQDITSQDGLFRLDEIRRVGIQIGKVEDNRSTEVARFMRTKAGRSLTNPENGFVKKINMGHLGTSWLADPVAAIEFGRWLDLGYGLAVTRAFVSMTSSATVQSAVASAEDIKPETKEFIQRHGTGLYIAGREVSQAEYSDYQAVTAGRCEWR”: the “soluble on expression in E. coli” value is given as “not soluble”.

With “MKTQIIGVLGLGIFGQTLATELSSFGQDVIALDNNSTTIDFLADQVTKAAVGDITDIDFLRSAGIDTCDTVIIATGEHLESSALALLHCKKLGITNIIAKATNNNYEEVLYGMGANLVITPERSTAKDLASNILRCNISRIFHLEDDVALIELKIPNEWAGKSLHTLNLRQTYNVNVIGFRNEENGKLNTHFDPMNRLPNEGTILVVSDNRTLEKFDYLGYLKLEHHHHHH”, the “soluble on expression in E. coli” value is “soluble”.

With “MGSDKIHHHHHHMTSETVLEIRNVSKHFGAVKALTAVDFRLARGEVHALCGENGAGKSTLMNVIAGVLQPSEGEVLIEGAPVKIASPAVAQSLGIALVHQEIALCPDATIAENMFMAATNRRRSALMNYAQLERDAQAVMNRLAPIDVSQKVGDLPISSQQLVEIAKALTLDCRVLIFDEPTAALTETEAQVLFGIIRDLKARGISIIYISHRMAEVFSLCDRVTVFRDGRYVATEMVSDVTPDDVVRLMVGREISQLYPDKQPSSERLGEPILSVRDLGGERFRDVSFELRYGEILGVGGLIGSGRTEIAEGICALRPVTQGEIRLHDKVLRLRRYSDAAKAGVVYLSEDRKGSGVFLDLSIAQNIAALDLKALTSLGLLNSREERALAEDLTRRLGVRMGGVDMPVSSLSGGNQQKVAIAKQLAVDPKVILMDEPTRGIDVGAKSEIHRLLRELARAGIGILVISSELPELIGLCDRVLVVREGRIAGEVSGNEMTEEVIMRLASGIGPATETNLKASGHAA”, the “soluble on expression in E. coli” value is on record as “not soluble”.

Turning to “MLFNSFQAKIDPSLADLFRNSDKEPFPAMTHELPPEKSLKARLLEQEDERISNVLAHEKRFSTEPVVIDDVFMSRLCVDSQPGCSRIPDIDIANVFRDDLESCTLSSSEDEEEEEEPIGQISTFEMLHAPRKPIVWSEQELSDFDMKSRLLDMRMDHWDLARIANVPKRIAKGETVNLRMPRYSAEVVKQRIAKGVTDIFGHFSLVPHTLTKSHKPVAERKQILIERYHDLMNDFDYATRPGSVESKKYANLTKRLNLCNDFLSAPKLPHRLFPRLIIRSIRPPETPKEPVKRKMRESESDDSVIIIPRKIEKEKPRPTTENVVLKKVEMEKKRPRSPELVPKKIVMEKERPSSPDSEAEEREHNLRIEKERHQKELEFRREALRKREQEREEHKKRAQEELRRQMTAALEESTRRQAEMNRQIEDEARKRDELQRIAEEKKRKQLLEDQCRAKQEKEKRDAEELEQMRLNIARLAGTKDVENALKSPSLVEIVPPSDARAFEMIKWNAVKCKIPENWEKRKDKFYRVFEWPSDAAQRDIERDEVVSIPRSKPIVIPQEDTYITRNRIPLKLPPKVKQAVPALVVRNSNNATRTVVAATVNENGIQWPAETINIDEVVREIRGLMAPTRRNFAISLSPKTDEIDYQAINLNRLKSGIVYPFYFSDGLYWPLVFLKSSKNGKPEAQRHVEALTSCKSFSGKYASRYLLTTTKEEDSATKKFEDAYADSDGDWADYSTKPGRFSNRAGFKPHYDTSNDSFEVQKQRAVDSLNSQYEKERNELDAFGRYTDEYRKRKDRAQYQNHIKTHLRELVRDARLDAFSFKEEFKDFEGGFEDYPGTRVEPYENDWYSHGYTLYSHTRDAAYADYMHDVCKPYEDMLPPTEYHEIFNEWCFTPMLASLHYQLKKNAFDVLSPQDVKDMEARHRKYIGLVQKERKFSLEQALDVCKLTDYDKRQWTILHDQLVTHFKDFPSISGLVYDRNTNLLANVNRNLKHLFSTIYRDDSPPDDQF”, the “soluble on expression in E. coli” value is “soluble”.

Take “MSLKITDLRVAVVSRAPMTCPIIRIDTNQGIYGLGEVRDGASKNYALMLKSRLLNENPCNVDKLFRKIKQFGGHARQGGGVCGVEMALWDLAGKAYNVPVHQMLGGKFRDRIRCYADTTESHDPKVYGQRLKARRDEGFTWLKMDLGVDLVADVPGALTMPVGERINGNPMVAHMFTGNEITEKGIQLMCDYVAQIREIVGMDIPLSADHFGHIGVNSCIRLGKALTKYNMAWLEDMIPWQQTALLKQIADAVDIPILTGEDIYLKEPFIELCKAHAVDIIHPDLATSGGILETKKIGDAAQELGVAMAMHFAGSPVSCMANVHCAAATENFLVLENHSVDVPWWGDLVEGVSKPIVSKGFITVPNGPGLGVTLNDEVVKQHLGEPGYFEATPYWNVDRSNDRQWSEGHHHHHH”: the “soluble on expression in E. coli” value is recorded as “not soluble”.

On to “MSLKFLLTTAQGIEDIAKREVSLLLKKLGISFQIEEKPLGIEGRLLLEAEKAYYVDEKGRKRELSISTYLNENSRLLHRVIIEIASEKFNGIEKDESEEALKRIKDFVSSLPVEQFVKVSETFAVRSFRKGDHNITSIDIARTVGEAIFERLSRFGTPLVNLDHPAVIFRAELIKDVFFLGIDTTGDSSLHKRPWRVYDHPAHLKASIANAMIELAELDGGSVLDPMCGSGTILIELALRRYSGEIIGIEKYRKHLIGAEMNALAAGVLDKIKFIQGDATQLSQYVDSVDFAISNLPYGLKIGKKSMIPDLYMKFFNELAKVLEKRGVFITTEKKAIEEAIAENGFEIIHHRVIGHGGLMVHLYVVKGIITITTDPNSSSVDKLAAALEHHHHHH”, for which the “soluble on expression in E. coli” value was “soluble”.
